Experimental data published in article PMC4125734 (Molecular & Cellular Proteomics : MCP, 2014).
Where “and” joins values, the source holds several entries; their conditions need not be identical. Equal entries are not always repeated. Where two headings read alike, the source gives them in different places.

B1: 14-3-3γ (natural protein)
chain: VDREQLVQKARLAEQAERYDDMAAAMKNVTELNEPLSNEERNLLSVAYKNVVGARRSSWRVISSIEQKTSADGNEKKIEMVRAYREKIEKELEAVCQDVLSLLDNYLIKNCSETQYESKVFYLKMKGDYYRYLAEVATGEKRATVVESSEKAYSEAHEISKEHMQPTHPIRLGLALNYSVFYYEIQNAPEQACHLAKTAFDDAIAELDTLNEDSYKDSTLIMQLLRDNLTLWTSDQQDDDGGEGNN

Legend:
14-3-3γ [1] = molecular target: 14-3-3γ (UniProt P61981); assay: SPR
14-3-3γ [2] = molecular target: 14-3-3γ (UniProt P61981); assay: native MS
GST-14-3-3γ [3] = molecular target: GST-14-3-3γ (UniProt P61981); assay: SPR
GST-14-3-3γ [4] = molecular target: GST-14-3-3γ (UniProt P61981); assay: SPR; remark: listed apart in the source
GST-14-3-3γ [5] = molecular target: GST-14-3-3γ (UniProt P61981); assay: SPR; remark: listed apart in the source
14-3-3γ [6] = molecular target: 14-3-3γ (UniProt P61981); assay: negative-stain electron microscopy
14-3-3γ [7] = molecular target: 14-3-3γ (UniProt P61981); assay: negative-stain electron microscopy; remark: listed apart in the source
14-3-3γ [8] = molecular target: 14-3-3γ (UniProt P61981); assay: native MS; remark: listed apart in the source
14-3-3γ [9] = molecular target: 14-3-3γ (UniProt P61981); assay: native MS; remark: listed apart in the source
native MS = molecular target: the molecule itself; assay: native MS

Molecule | Kd (14-3-3γ [1]) [nM] | dissociation rate constant of the smaller, rapidly dissociating population (14-3-3γ [1]) [s⁻¹] | koff (14-3-3γ [1]) [s⁻¹] | kon (14-3-3γ [1]) [M⁻¹ s⁻¹] | stoichiometry N (14-3-3γ dimers per TH tetramer) (14-3-3γ [2]) | koff (GST-14-3-3γ [3]) [s⁻¹] | kon (GST-14-3-3γ [3]) [M⁻¹ s⁻¹] | kon (GST-14-3-3γ [4]) [M⁻¹ s⁻¹] | kon (GST-14-3-3γ [5]) [M⁻¹ s⁻¹] | stoichiometry N (14-3-3γ dimers per TH tetramer) (14-3-3γ [6]) | stoichiometry N (14-3-3γ dimers per TH tetramer) (14-3-3γ [7]) | stoichiometry N (14-3-3γ dimers per TH tetramer) (14-3-3γ [8]) | stoichiometry N (14-3-3γ dimers per TH tetramer) (14-3-3γ [9]) | stoichiometry N (native MS)
human tyrosine hydroxylase isoform 1 phosphorylated on both Ser19 and Ser40 (TH-pS19pS40) (from UniProt P07101-3 1-497) (enzyme) | 2.1 | 0.018 | 0.00036 | 159000 | 2 | – | – | – | – | – | – | – | – | –
human tyrosine hydroxylase isoform 1 phosphorylated on Ser19 to low stoichiometry (TH-pS19L) (from UniProt P07101-3 1-497) (enzyme) | 0.57 | 0.019 | 0.00045 to 0.00051 | 780000 | 1 and 2 | 0.00063 to 0.00069 | 2.4e+06 | 1.2e+06 | 1.8e+06 | – | – | – | – | –
human tyrosine hydroxylase isoform 1 phosphorylated on Ser19 (TH-pS19), full stoichiometry (from UniProt P07101-3 1-497) (enzyme) | – | 0.018 | – | 144000 | 2 | – | – | – | – | 1 | 2 | 1 | 2 | –
B1 | – | – | – | – | – | – | – | – | – | – | – | – | – | 2
